Measured values as given in patent US9803013B2, “Biological materials and uses thereof” (BioInvent International AB, priority 2005, dated 2017).

Key:
DU145 cells = test: Apoptosis induction in carcinoma cells (cross-linked IgG, 16-24 hours, Annexin V/PI); assay type: cell-based, human
Protocol: (§1) The prostate carcinoma cell line PC-3 was grown in Complete Growth Medium (RPMI 1640, supplemented with 10% FCS, 10 mM HEPES, and 2 mM L-Glutamine) to 80% confluency in a 6 well plate. The prostate carcinoma cell line DU145 was grown in MEM with Earl's salts, supplemented with 10% FCS, 1 mM sodium pyruvate, and 1 mM non-essential amino acids and the derivate of a melanoma cell line MDA MB 435 was grown in DMEM supplemented with 10% FCS.
(§2) For apoptosis assays cells were washed in PBS and serially diluted B11 IgG1 (or B1 IgG1, Trastuzumab or negative antibody control for controls) was added to individual wells and binding was allowed during a 1-2 h incubation at 4° C. The cells were washed and Complete Growth Medium was added, containing cross-linking antibody, Fab′2 Goat anti-Human Fab′2, at 10 μg/ml. Cells were incubated in a humidified atmosphere, with 5% CO2 at 37° C., for 16-24 hours. Cells were collected by trypsination and stained with Alexa Fluor 488-Annexin V (AF488-AV) and propidium iodide (PI), according to manufacturer's instructions. The percentage apoptotic cells was determined by the formula: % apoptotic cells=100−% AF488−AV/PI−/−.
(§3) Cells were seeded in 6 well plates with Complete Growth Medium three days before the onset of the experiment.

MDA MB 435 cells = test: as above; assay type: cell-based, human; settings: MDA MB 435, cross-linked IgG
Protocol: as §1, §2, §3

RPMI-8226 cells = test: Macrophage ADCP; assay type: cell-based; settings: RPMI-8226, human macrophages
Protocol: Cultured macrophages were detached and plated in flat 96-well plates at 50 000 cells/well and placed in 37° C. CFSE-stained target cells were incubated with antibodies for up to 1 hr on ice. After washing, the different cell solutions were added to the culture plates containing macrophages at a ratio of 5:1 (Target cells:Macrophages). Thereafter, the culture plates were incubated at 37° C. for 1-2 hr (primary patient MM cells) or 16 hr (RPMI-8226 cells). The percentage of macrophages that had phagocytosed tumor cells (CFSE^+, CD206^+) per total analyzed macrophages was determined following gating and acquisition of 5000 CD206^+ cells/sample.
Buffy coats from healthy human donors were ordered through the local blood central at Lund University Hospital and Halmstad Hospital. Peripheral blood mononuclear cells (PBMCs) were first extracted using Ficoll-Paque PLUS (GE Healthcare Life Sciences), followed by isolation of monocytes with CD14 MicroBeads and MACS separation (Miltenyi Biotec). The monocytes were cultured in RPMI 1640 medium with 10% heat-inactivated FBS (Invitrogen) and 25 ng/mL of recombinant human M-CSF (R&D Systems) for 6-14 days, causing differentiation into macrophages. Medium with M-CSF was changed every 2-3 days upon initiation of cultures.
RPMI-8226 cells (ATCC) were continuously cultured in RPMI 1640 medium supplemented with 10 mM HEPES, 1 mM sodium pyruvate and 10% FBS. For multiple myeloma cells, freshly isolated bone marrow samples were donated by patients at Lund University Hospital and subsequently processed with Ficoll-Paque PLUS. Negative isolation of malignant plasma cells was then performed using the Plasma Cell Isolation Kit II according to the manufacturer's instructions (Miltenyi Biotec).
At least 4 h before co-culture with target cells the cultured macrophages were detached with Accutase (Sigma Aldrich), before plated in flat 96-well plates at 50 000 cells/well and placed in 37° C. […] After washing, the different cell solutions were added to the culture plates containing macrophages at a ratio of 5:1 (Target cells:Macrophages). Thereafter, the culture plates were incubated at 37° C. for 1-2 hr (primary patient MM cells) or 16 hr (RPMI-8226 cells). Next, samples were stained with APC-conjugated anti-CD206 antibody (BD Biosciences), before harvested by scraping the culture plate wells. The resulting cell solutions were then analyzed by flow cytometry, where CD206^+ macrophages were gated and acquired at 5000 cells/sample. A cut-off level identifying CFSE^+, CD206^+ double positive (phagocytic) macrophages was set for each experimental sample series. This level differed between the individual assays since the magnitude of basic (unstimulated) phagocytosis varied (different donors and time-points) among the experiments.

human target tumor cells = test: ADCC with human effector NK cells; assay type: cell-based
Protocol: NK cells were isolated from purified PBMCs using positive or negative NK cell-isolation kits (Miltenyi Biotec). Target cells were harvested and incubated in medium with or without the respective antibodies (2 μg/mL) for 60 min on ice before. NK cells were washed, diluted in ADCC medium and dispensed together with the respective antibody-coated target cells at varying effector/target cell ratios. All experiments were performed in triplicate. After incubation, TO-PRO-3 dye and counting beads (Invitrogen) were added and cells were analyzed for membrane permeabilization using flow cytometry.
Buffy coats from human donors (ordered through Blodcentralen, Lund) were used to isolate peripheral blood mononuclear cells (PBMCs), and subsequently natural killer (NK) cells. Briefly, peripheral blood components were separated using Ficoll-Paque PLUS (Amersham Biosciences, Sweden) in Leucosep tubes (Greiner Bio-One). […] The purity of the obtained NK cell fractions was >75% as determined by flow cytometry after staining with α-CD56 antibodies (BD Biosciences). […] After incubation, TO-PRO-3 dye and counting beads (Invitrogen) were added and cells were analyzed for membrane permeabilization using flow cytometry.

B1: B11: fully human IgG1 antibody specific for ICAM-1; VH and VL sequences of FIG. 10 (SEQ ID NOs. 6 and 8) (antibody, listed as Homo sapiens, V domains shown)
VH: EVQLLESGGGLVQPGGSLRLSCAASGFTFSNAWMSWVRQAPGKGLEWVAFIWYDGSNKYYADSVKGRFTISRDNSKNTLYLQMNSLRAEDTAVYYCARYSGWYFDYWGQGTLVTVSS
VL: QSVLTQPPSASGTPGQRVTISCTGSSSNIGAGYDVHWYQQLPGTAPKLLIYDNNNRPSGVPDRFSGSKSGTSASLAISGLRSEDEADYYCQSYDSSLSAWLFGGGTKLTVLG
- Apoptosis Induction (DU145 cells): induce apoptosis
- Apoptosis Induction (MDA MB 435 cells): induce apoptosis
- ADCP (RPMI-8226 cells): conferred ADCP
- ADCC (human target tumor cells): conferred cytotoxicity in an Fc-dependent manner
